Here are results for ten molecules from US20140112915A1 (Novartis, published 2014).

Where two headings read alike, the source gives them in different places.

Holding throughout (experiment): cell-based or functional assay
Assay [1] has as its target T1, Native human IL-18 (human, UniProt Q14116 37-193).
T1 sequence: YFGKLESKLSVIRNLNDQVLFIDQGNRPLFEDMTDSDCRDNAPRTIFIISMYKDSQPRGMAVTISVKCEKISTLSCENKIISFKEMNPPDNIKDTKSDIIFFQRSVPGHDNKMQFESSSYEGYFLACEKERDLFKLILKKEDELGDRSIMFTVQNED

The target in assay [2] is T2, Recombinant cynomolgus IL-18 (cynomolgus monkey, UniProt Q14116 37-193 (human entry)).
T2 chain: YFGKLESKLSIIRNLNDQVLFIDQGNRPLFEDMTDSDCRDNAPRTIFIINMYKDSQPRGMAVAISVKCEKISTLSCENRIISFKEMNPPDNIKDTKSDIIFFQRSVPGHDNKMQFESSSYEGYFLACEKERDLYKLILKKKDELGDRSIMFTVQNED

For assay [3], the target named is T3, Recombinant human IL-18 (human, UniProt Q14116 37-193).
T3 sequence: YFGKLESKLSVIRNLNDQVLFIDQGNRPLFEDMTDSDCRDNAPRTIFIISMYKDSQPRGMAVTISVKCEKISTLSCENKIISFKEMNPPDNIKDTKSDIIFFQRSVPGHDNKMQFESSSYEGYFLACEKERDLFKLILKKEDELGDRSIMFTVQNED

Assay [4] has as its target T1, Native human IL-18. The source holds these as a separate data set.
Assay [5] has as its target T3, Recombinant human IL-18. The source holds these as a separate data set.
Assay [6] has as its target T1, Native human IL-18. The source holds these as a separate data set.
The target of assay [7] is T3, Recombinant human IL-18. This is another data set of the same source.

B1: MOR13342 (antibody, human IgG1, kappa, L234A L235A, V domains shown)
VH: QVQLVQSGAEVKKPGSSVKVSCKASGGTFSTFSISWVRQAPGQGLEWMGGIIPIFGTANYAQKFQGRVTITADESTSTAYMELSSLRSEDTAVYYCARGGYGGYYYFDYWGQGTLVTVSS
VL: DIQMTQSPSSLSASVGDRVTITCRASQSISNRLNWYQQKPGKAPKLLIYKGSTLQSGVPSRFSGSGSGTDFTLTISSLQPEDFATYYCQQHYVWSTTFGQGTKVEIKR
Turning to B1, in the assay with Native human IL-18 [1], the “IC50, inhibition of IFN-γ release, PBMC, Native IL-18 (LPS/IL-12)” value (from here on “IC50, inhibition … (LPS/IL-12)”) is 0.5 nM. In addition, in assay [2], the “IC50, inhibition of IFN-γ release, KG-1 cells, Cyno IL-18 (0.2 nM)” value came out at 2.9 nM. In addition, the “IC50, inhibition of IFN-γ release, KG-1 cells, Hu IL-18 (0.5 nM)” value in the assay with Recombinant human IL-18 [3] was 0.11 nM. In the assay with Native human IL-18 [4], the “IC50, inhibition of IFN-γ release, human whole blood, LPS/IL-12 (native IL-18)” value (“IC50, inhibition … (native IL-18)” for short) worked out at 21.5 nM. Besides, in the assay with Recombinant human IL-18 [5], the “IC50, inhibition of IFN-γ release, human whole blood, recombinant human IL-18 (7 nM)” value (from here on “IC50, inhibition of IFN-γ release … (7 nM)”) was 6.6 nM.

B2: MOR13347 (antibody, human IgG1, kappa, L234A L235A, V domains shown)
VH: QVQLVQSGAEVKKPGSSVKVSCKASGGTFSTFSISWVRQAPGQGLEWMGGIIPIFGTANYAQKFQGRVTITADESTSTAYMELSSLRSEDTAVYYCARGGYGGYYYFDYWGQGTLVTVSS
VL: DIQMTQSPSSLSASVGDRVTITCRASQSISNRLNWYQQKPGKAPKLLIYKGSTLQSGVPSRFSGSGSGTDFTLTISSLQPEDFATYYCQQHYQWLTTFGQGTKVEIKR
With B2, the “IC50, inhibition … (LPS/IL-12)” value with Native human IL-18 [1] came out at 0.5 nM. Moreover, the “IC50, inhibition of IFN-γ release, KG-1 cells, Cyno IL-18 (0.2 nM)” value in assay [2] amounted to 2.8 nM. Also, the “IC50, inhibition of IFN-γ release, KG-1 cells, Hu IL-18 (0.5 nM)” value with Recombinant human IL-18 [3] turned out to be 0.12 nM. For the same molecule, the “IC50, inhibition … (native IL-18)” value in the assay with Native human IL-18 [4] came out at 8.3 nM. Moreover, the “IC50, inhibition of IFN-γ release … (7 nM)” value with Recombinant human IL-18 [5] was found to be 3.5 nM.

B3: MOR10579 (antibody, human IgG1, lambda, L234A L235A, V domains shown)
VH: EVQLVQSGAEVKKPGSSVKVSCKASGGTFNSYAISWVRQAPGQGLEWMGWINPFYIGETFYAQKFQGRVTITADESTSTAYMELSSLRSEDTAVYYCARAAYHPLVFDNWGQGTLVTVSS
VL: QSVLTQPPSASGTPGQRVTISCSGSSSNIGNHYVNWYQQLPGTAPKLLIYRNNHRPSGVPDRFSGSKSGTSASLAISGLQSEDEADYYCQSWDYSGFSTVFGGGTKLTVLG
B3: the “IC50, inhibition … (LPS/IL-12)” value with Native human IL-18 [1] was 0.3 nM. Besides, the “IC50, inhibition of IFN-γ release, KG-1 cells, Cyno IL-18” value in assay [2] came to 9.8 nM. Moreover, in the assay with Recombinant human IL-18 [3], the “IC50, inhibition of IFN-γ release, KG-1 cells, Hu IL-18 (1 nM)” value (from here on “IC50, inhibition of IFN-γ release … (1 nM)”) is 0.8 nM and the “IC50, inhibition of IFN-γ release, PBMC, Hu IL-18 (recombinant)” value (from here on “IC50, inhibition … (recombinant)”) was 1.9 nM. In addition, in the assay with Native human IL-18 [4], the “IC50, inhibition … (native IL-18)” value was 16.7 nM. Besides, in the assay with Recombinant human IL-18 [5], the “IC50, inhibition of IFN-γ release … (7 nM)” value turned out to be 5.6 nM.

B4: MOR10222_E1Q_N30S_M54Y (antibody, human IgG1, lambda, L234A L235A, V domains shown)
VH: QVQLVQSGAEVKKPGSSVKVSCKASGGTFSSYAISWVRQAPGQGLEWMGNIIPYTGQTYYAQKFQGRVTITADESTSTAYMELSSLRSEDTAVYYCARAAYHPLVFDNWGQGTLVTVSS
VL: QSVLTQPPSASGTPGQRVTISCSGSSSNIGNHYVNWYQQLPGTAPKLLIYRNNHRPSGVPDRFSGSKSGTSASLAISGLQSEDEADYYCQSWDYSGFSTVFGGGTKLTVLG
As for B4, in the assay with Native human IL-18 [6], the “IC50, inhibition … (LPS/IL-12)” value stood at 0.09 nM. The “IC50, inhibition of IFN-γ release … (1 nM)” value with Recombinant human IL-18 [7] was 4.8 nM. In the assay with Native human IL-18 [4], the “IC50, inhibition … (native IL-18)” value came to 18.8 nM. For the same molecule, in the assay with Recombinant human IL-18 [5], the “IC50, inhibition of IFN-γ release … (7 nM)” value came to 34.3 nM.

B5: MOR10222_E1Q_N30S (antibody, human IgG1, lambda, L234A L235A, V domains shown)
VH: QVQLVQSGAEVKKPGSSVKVSCKASGGTFSSYAISWVRQAPGQGLEWMGNIIPMTGQTYYAQKFQGRVTITADESTSTAYMELSSLRSEDTAVYYCARAAYHPLVFDNWGQGTLVTVSS
VL: QSVLTQPPSASGTPGQRVTISCSGSSSNIGNHYVNWYQQLPGTAPKLLIYRNNHRPSGVPDRFSGSKSGTSASLAISGLQSEDEADYYCQSWDYSGFSTVFGGGTKLTVLG
As to B5, in the assay with Native human IL-18 [6], the “IC50, inhibition … (LPS/IL-12)” value turned out to be 0.05 nM. In addition, the “IC50, inhibition of IFN-γ release … (1 nM)” value with Recombinant human IL-18 [7] worked out at 3.3 nM. Moreover, the “IC50, inhibition … (native IL-18)” value with Native human IL-18 [4] was found to be 16.9 nM. Moreover, the “IC50, inhibition of IFN-γ release … (7 nM)” value with Recombinant human IL-18 [5] worked out at 58.4 nM.

B6: MOR9464_N30E (antibody, human IgG1, lambda, L234A L235A, V domains shown)
VH: EVQLVQSGAEVKKPGSSVKVSCKASGGTFESYAISWVRQAPGQGLEWMGNIIPMTGQTYYAQKFQGRVTITADESTSTAYMELSSLRSEDTAVYYCARAAYHPLVFDNWGQGTLVTVSS
VL: DIVLTQPPSVSGAPGQRVTISCSGSSSNIGNHYVNWYQQLPGTAPKLLIYRNNHRPSGVPDRFSGSKSGTSASLAITGLQSEDEADYYCQSWDYSGFSTVFGGGTKLTVLG
Turning to B6, the “IC50, inhibition … (LPS/IL-12)” value in the assay with Native human IL-18 [6] was found to be 0.13 nM. Also, the “IC50, inhibition of IFN-γ release … (1 nM)” value in the assay with Recombinant human IL-18 [7] was found to be 0.49 nM. The “IC50, inhibition … (native IL-18)” value with Native human IL-18 [4] turned out to be 19.2 nM. Further, in the assay with Recombinant human IL-18 [5], the “IC50, inhibition of IFN-γ release … (7 nM)” value came out at 12.9 nM.

B7: MOR9464_N30T (antibody, human IgG1, lambda, L234A L235A, V domains shown)
VH: EVQLVQSGAEVKKPGSSVKVSCKASGGTFTSYAISWVRQAPGQGLEWMGNIIPMTGQTYYAQKFQGRVTITADESTSTAYMELSSLRSEDTAVYYCARAAYHPLVFDNWGQGTLVTVSS
VL: DIVLTQPPSVSGAPGQRVTISCSGSSSNIGNHYVNWYQQLPGTAPKLLIYRNNHRPSGVPDRFSGSKSGTSASLAITGLQSEDEADYYCQSWDYSGFSTVFGGGTKLTVLG
For the molecule B7, in the assay with Native human IL-18 [6], the “IC50, inhibition … (LPS/IL-12)” value was 0.19 nM. For the same molecule, in the assay with Recombinant human IL-18 [7], the “IC50, inhibition of IFN-γ release … (1 nM)” value is 0.31 nM. Further, in the assay with Native human IL-18 [4], the “IC50, inhibition … (native IL-18)” value came to 20.8 nM. In addition, in the assay with Recombinant human IL-18 [5], the “IC50, inhibition of IFN-γ release … (7 nM)” value is 12.5 nM.

B8: MOR10222 (antibody, human IgG1, lambda, L234A L235A, V domains shown)
VH: EVQLVQSGAEVKKPGSSVKVSCKASGGTFNSYAISWVRQAPGQGLEWMGNIIPMTGQTYYAQKFQGRVTITADESTSTAYMELSSLRSEDTAVYYCARAAYHPLVFDNWGQGTLVTVSS
VL: QSVLTQPPSASGTPGQRVTISCSGSSSNIGNHYVNWYQQLPGTAPKLLIYRNNHRPSGVPDRFSGSKSGTSASLAISGLQSEDEADYYCQSWDYSGFSTVFGGGTKLTVLG
For the molecule B8, in the assay with Native human IL-18 [1], the “IC50, inhibition … (LPS/IL-12)” value came out at 0.22 nM. In addition, the “IC50, inhibition of IFN-γ release, KG-1 cells, Cyno IL-18” value in assay [2] is 6.6 nM. In the assay with Recombinant human IL-18 [3], the “IC50, inhibition of IFN-γ release … (1 nM)” value amounted to 0.7 nM and the “IC50, inhibition … (recombinant)” value was 2.3 nM. Besides, the “IC50, inhibition … (native IL-18)” value with Native human IL-18 [4] was 21.6 nM. In the assay with Recombinant human IL-18 [5], the “IC50, inhibition of IFN-γ release … (7 nM)” value came to 4.7 nM.

B9: MOR10222_E1Q_N30S_M54N (antibody, human IgG1, lambda, L234A L235A, V domains shown)
VH: QVQLVQSGAEVKKPGSSVKVSCKASGGTFSSYAISWVRQAPGQGLEWMGNIIPNTGQTYYAQKFQGRVTITADESTSTAYMELSSLRSEDTAVYYCARAAYHPLVFDNWGQGTLVTVSS
VL: QSVLTQPPSASGTPGQRVTISCSGSSSNIGNHYVNWYQQLPGTAPKLLIYRNNHRPSGVPDRFSGSKSGTSASLAISGLQSEDEADYYCQSWDYSGFSTVFGGGTKLTVLG
For the molecule B9, the “IC50, inhibition … (LPS/IL-12)” value with Native human IL-18 [6] came to 0.03 nM. Besides, in the assay with Recombinant human IL-18 [7], the “IC50, inhibition of IFN-γ release … (1 nM)” value is 5.2 nM. For the same molecule, the “IC50, inhibition … (native IL-18)” value in the assay with Native human IL-18 [4] was determined as 16.1 nM. For the same molecule, in the assay with Recombinant human IL-18 [5], the “IC50, inhibition of IFN-γ release … (7 nM)” value was 46.5 nM.

B10: Recombinant human IL-18 Binding Protein-IgG1 Fc (Fc fusion, UniProt O95998 31-194, looked up, not shown: a dimerising Fc or GST)
chain: TPVSQTTTAATASVRSTKDPCPSQPPVFPAAKQCPALEVTWPEVEVPLNGTLSLSCVACSRFPNFSILYWLGNGSFIEHLPGRLWEGSTSRERGSTGTQLCKALVLEQLTPALHSTNFSCVLVDPEQVVQRHVVLAQLWAGLRATLPPTQEALPSSHSSPQQQG
Consider B10, for which the “IC50, inhibition … (LPS/IL-12)” value with Native human IL-18 [1] came to 0.17 nM. The “IC50, inhibition of IFN-γ release, KG-1 cells, Cyno IL-18” value in assay [2] was 0.4 nM. Further, in the assay with Recombinant human IL-18 [3], the “IC50, inhibition of IFN-γ release … (1 nM)” value is 0.3 nM and the “IC50, inhibition … (recombinant)” value amounted to 1 nM. Also, in the assay with Native human IL-18 [4], the “IC50, inhibition … (native IL-18)” value is 12.1 nM. Besides, the “IC50, inhibition of IFN-γ release … (7 nM)” value with Recombinant human IL-18 [5] is 5.7 nM.
